# Measurements published in publication PMC8298264, “Function of cofactor Akirin2 in the regulation of gene expression in model human neutrophil-like HL60 cells” (Bioscience Reports, 2021).
# B1: sp¦Q6IBS0¦TWF2_HUMAN (protein, UniProt Q6IBS0 2-349, looked up)
# Twinfilin-2: AHQTGIHATEELKEFFAKARAGSVRLIKVVIEDEQLVLGASQEPVGRWDQDYDRAVLPLLDAQQPCYLLYRLDSQNAQGFEWLFLAWSPDNSPVRLKMLYAATRATVKKEFGGGHIKDELFGTVKDDLSFAGYQKHLSSCAAPAPLTSAERELQQIRINEVKTEISVESKHQTLQGLAFPLQPEAQRALQQLKQKMVNYIQMKLDLERETIELVHTEPTDVAQLPSRVPRDAARYHFFLYKHTHEGDPLESVVFIYSMPGYKCSIKERMLYSSCKSRLLDSVEQDFHLEIAKKIEIGDGAELTAEFLYDEVHPKQHAFKQAFAKPKGPGGKRGHKRLIRGPGENGDDS
# B2: sp¦Q96I99¦SUCB2_HUMAN (protein, UniProt Q96I99 38-432, looked up)
# Succinate--CoA ligase …: LNLQEYQSKKLMSDNGVRVQRFFVADTANEALEAAKRLNAKEIVLKAQILAGGRGKGVFNSGLKGGVHLTKDPNVVGQLAKQMIGYNLATKQTPKEGVKVNKVMVAEALDISRETYLAILMDRSCNGPVLVGSPQGGVDIEEVAASNPELIFKEQIDIFEGIKDSQAQRMAENLGFVGPLKSQAADQITKLYNLFLKIDATQVEVNPFGETPEGQVVCFDAKINFDDNAEFRQKDIFAMDDKSENEPIENEAAKYDLKYIGLDGNIACFVNGAGLAMATCDIIFLNGGKPANFLDLGGGVKEAQVYQAFKLLTADPKVEAILVNIFGGIVNCAIIANGITKACRELELKVPLVVRLEGTNVQEAQKILNNSGLPITSAIDLEDAAKKAVASVAKK
# B3: sp¦B0I1T2¦MYO1G_HUMAN (protein, UniProt B0I1T2 1-1018, looked up)
# Unconventional myosin-Ig: MEDEEGPEYGKPDFVLLDQVTMEDFMRNLQLRFEKGRIYTYIGEVLVSVNPYQELPLYGPEAIARYQGRELYERPPHLYAVANAAYKAMKHRSRDTCIVISGESGAGKTEASKHIMQYIAAVTNPSQRAEVERVKDVLLKSTCVLEAFGNARTNRNHNSSRFGKYMDINFDFKGDPIGGHIHSYLLEKSRVLKQHVGERNFHAFYQLLRGSEDKQLHELHLERNPAVYNFTHQGAGLNMTVHSALDSDEQSHQAVTEAMRVIGFSPEEVESVHRILAAILHLGNIEFVETEEGGLQKEGLAVAEEALVDHVAELTATPRDLVLRSLLARTVASGGRELIEKGHTAAEASYARDACAKAVYQRLFEWVVNRINSVMEPRGRDPRRDGKDTVIGVLDIYGFEVFPVNSFEQFCINYCNEKLQQLFIQLILKQEQEEYEREGITWQSVEYFNNATIVDLVERPHRGILAVLDEACSSAGTITDRIFLQTLDMHHRHHLHYTSRQLCPTDKTMEFGRDFRIKHYAGDVTYSVEGFIDKNRDFLFQDFKRLLYNSTDPTLRAMWPDGQQDITEVTKRPLTAGTLFKNSMVALVENLASKEPFYVRCIKPNEDKVAGKLDENHCRHQVAYLGLLENVRVRRAGFASRQPYSRFLLRYKMTCEYTWPNHLLGSDKAAVSALLEQHGLQGDVAFGHSKLFIRSPRTLVTLEQSRARLIPIIVLLLQKAWRGTLARWRCRRLRAIYTIMRWFRRHKVRAHLAELQRRFQAARQPPLYGRDLVWPLPPAVLQPFQDTCHALFCRWRARQLVKNIPPSDMPQIKAKVAAMGALQGLRQDWGCRRAWARDYLSSATDNPTASSLFAQRLKTLQDKDGFGAVLFSSHVRKVNRFHKIRNRALLLTDQHLYKLDPDRQYRVMRAVPLEAVTGLSVTSGGDQLVVLHARGQDDLVVCLHRSRPPLDNRVGELVGVLAAHCQGEGRTLEVRVSDCIPLSHRGVRRLISVEPRPEQPEPDFRCARGSFTLLWPSR
# B4: sp¦Q04837¦SSBP_HUMAN (protein, UniProt Q04837 17-148, looked up)
# Single-stranded DNA-binding …: ESETTTSLVLERSLNRVHLLGRVGQDPVLRQVEGKNPVTIFSLATNEMWRSGDSEVYQLGDVSQKTTWHRISVFRPGLRDVAYQYVKKGSRIYLEGKIDYGEYMDKNNVRRQATTIIADNIIFLSDQTKEKE
# B5: sp¦P34897¦GLYM_HUMAN (protein, UniProt P34897 30-504, looked up)
# Serine …: NAAQTQTGEANRGWTGQESLSDSDPEMWELLQREKDRQCRGLELIASENFCSRAALEALGSCLNNKYSEGYPGKRYYGGAEVVDEIELLCQRRALEAFDLDPAQWGVNVQPYSGSPANLAVYTALLQPHDRIMGLDLPDGGHLTHGYMSDVKRISATSIFFESMPYKLNPKTGLIDYNQLALTARLFRPRLIIAGTSAYARLIDYARMREVCDEVKAHLLADMAHISGLVAAKVIPSPFKHADIVTTTTHKTLRGARSGLIFYRKGVKAVDPKTGREIPYTFEDRINFAVFPSLQGGPHNHAIAAVAVALKQACTPMFREYSLQVLKNARAMADALLERGYSLVSGGTDNHLVLVDLRPKGLDGARAERVLELVSITANKNTCPGDRSAITPGGLRLGAPALTSRQFREDDFRRVVDFIDEGVNIGLEVKSKTAKLQDFKSFLLKDSETSQRLANLRQRVEQFARAFPMPGFDEH
# B6: sp¦P56192¦SYMC_HUMAN (protein, UniProt P56192 1-900, looked up)
# Methionine--tRNA ligase, …: MRLFVSDGVPGCLPVLAAAGRARGRAEVLISTVGPEDCVVPFLTRPKVPVLQLDSGNYLFSTSAICRYFFLLSGWEQDDLTNQWLEWEATELQPALSAALYYLVVQGKKGEDVLGSVRRALTHIDHSLSRQNCPFLAGETESLADIVLWGALYPLLQDPAYLPEELSALHSWFQTLSTQEPCQRAAETVLKQQGVLALRPYLQKQPQPSPAEGRAVTNEPEEEELATLSEEEIAMAVTAWEKGLESLPPLRPQQNPVLPVAGERNVLITSALPYVNNVPHLGNIIGCVLSADVFARYSRLRQWNTLYLCGTDEYGTATETKALEEGLTPQEICDKYHIIHADIYRWFNISFDIFGRTTTPQQTKITQDIFQQLLKRGFVLQDTVEQLRCEHCARFLADRFVEGVCPFCGYEEARGDQCDKCGKLINAVELKKPQCKVCRSCPVVQSSQHLFLDLPKLEKRLEEWLGRTLPGSDWTPNAQFITRSWLRDGLKPRCITRDLKWGTPVPLEGFEDKVFYVWFDATIGYLSITANYTDQWERWWKNPEQVDLYQFMAKDNVPFHSLVFPCSALGAEDNYTLVSHLIATEYLNYEDGKFSKSRGVGVFGDMAQDTGIPADIWRFYLLYIRPEGQDSAFSWTDLLLKNNSELLNNLGNFINRAGMFVSKFFGGYVPEMVLTPDDQRLLAHVTLELQHYHQLLEKVRIRDALRSILTISRHGNQYIQVNEPWKRIKGSEADRQRAGTVTGLAVNIAALLSVMLQPYMPTVSATIQAQLQLPPPACSILLTNFLCTLPAGHQIGTVSPLFQKLENDQIESLRQRFGGGQAKTSPKPAVVETVTTAKPQQIQALMDEVTKQGNIVRELKAQKADKNEVAAEVAKLLDLKKQLAVAEGKPPEAPKGKKKK
# B7: sp¦P55060¦XPO2_HUMAN (protein, UniProt P55060 1-971, looked up)
# Exportin-2: MELSDANLQTLTEYLKKTLDPDPAIRRPAEKFLESVEGNQNYPLLLLTLLEKSQDNVIKVCASVTFKNYIKRNWRIVEDEPNKICEADRVAIKANIVHLMLSSPEQIQKQLSDAISIIGREDFPQKWPDLLTEMVNRFQSGDFHVINGVLRTAHSLFKRYRHEFKSNELWTEIKLVLDAFALPLTNLFKATIELCSTHANDASALRILFSSLILISKLFYSLNFQDLPEFFEDNMETWMNNFHTLLTLDNKLLQTDDEEEAGLLELLKSQICDNAALYAQKYDEEFQRYLPRFVTAIWNLLVTTGQEVKYDLLVSNAIQFLASVCERPHYKNLFEDQNTLTSICEKVIVPNMEFRAADEEAFEDNSEEYIRRDLEGSDIDTRRRAACDLVRGLCKFFEGPVTGIFSGYVNSMLQEYAKNPSVNWKHKDAAIYLVTSLASKAQTQKHGITQANELVNLTEFFVNHILPDLKSANVNEFPVLKADGIKYIMIFRNQVPKEHLLVSIPLLINHLQAESIVVHTYAAHALERLFTMRGPNNATLFTAAEIAPFVEILLTNLFKALTLPGSSENEYIMKAIMRSFSLLQEAIIPYIPTLITQLTQKLLAVSKNPSKPHFNHYMFEAICLSIRITCKANPAAVVNFEEALFLVFTEILQNDVQEFIPYVFQVMSLLLETHKNDIPSSYMALFPHLLQPVLWERTGNIPALVRLLQAFLERGSNTIASAAADKIPGLLGVFQKLIASKANDHQGFYLLNSIIEHMPPESVDQYRKQIFILLFQRLQNSKTTKFIKSFLVFINLYCIKYGALALQEIFDGIQPKMFGMVLEKIIIPEIQKVSGNVEKKICAVGITKLLTECPPMMDTEYTKLWTPLLQSLIGLFELPEDDTIPDEEHFIDIEDTPGYQTAFSQLAFAGKKEHDPVGQMVNNPKIHLAQSLHKLSTACPGRVPSMVSTSLNAEALQYLQGYLQAASVTLL
# B8: sp¦Q13895¦BYST_HUMAN (protein, UniProt Q13895 1-437, looked up)
# Bystin: MPKFKAARGVGGQEKHAPLADQILAGNAVRAGVREKRRGRGTGEAEEEYVGPRLSRRILQQARQQQEELEAEHGTGDKPAAPRERTTRLGPRMPQDGSDDEDEEWPTLEKAATMTAAGHHAEVVVDPEDERAIEMFMNKNPPARRTLADIIMEKLTEKQTEVETVMSEVSGFPMPQLDPRVLEVYRGVREVLSKYRSGKLPKAFKIIPALSNWEQILYVTEPEAWTAAAMYQATRIFASNLKERMAQRFYNLVLLPRVRDDVAEYKRLNFHLYMALKKALFKPGAWFKGILIPLCESGTCTLREAIIVGSIITKCSIPVLHSSAAMLKIAEMEYSGANSIFLRLLLDKKYALPYRVLDALVFHFLGFRTEKRELPVLWHQCLLTLVQRYKADLATDQKEALLELLRLQPHPQLSPEIRRELQSAVPRDVEDVPITVE
# B9: sp¦P21912¦SDHB_HUMAN (protein, UniProt P21912 29-280, looked up)
# Succinate dehydrogenase …: AQTAAATAPRIKKFAIYRWDPDKAGDKPHMQTYEVDLNKCGPMVLDALIKIKNEVDSTLTFRRSCREGICGSCAMNINGGNTLACTRRIDTNLNKVSKIYPLPHMYVIKDLVPDLSNFYAQYKSIEPYLKKKDESQEGKQQYLQSIEEREKLDGLYECILCACCSTSCPSYWWNGDKYLGPAVLMQAYRWMIDSRDDFTEERLAKLQDPFSLYRCHTIMNCTRTCPKGLNPGKAIAEIKKMMATYKEKKASV
# B10: sp¦Q13451¦FKBP5_HUMAN (protein, UniProt Q13451 1-457, looked up)
# Peptidyl-prolyl cis-trans …: MTTDEGAKNNEESPTATVAEQGEDITSKKDRGVLKIVKRVGNGEETPMIGDKVYVHYKGKLSNGKKFDSSHDRNEPFVFSLGKGQVIKAWDIGVATMKKGEICHLLCKPEYAYGSAGSLPKIPSNATLFFEIELLDFKGEDLFEDGGIIRRTKRKGEGYSNPNEGATVEIHLEGRCGGRMFDCRDVAFTVGEGEDHDIPIGIDKALEKMQREEQCILYLGPRYGFGEAGKPKFGIEPNAELIYEVTLKSFEKAKESWEMDTKEKLEQAAIVKEKGTVYFKGGKYMQAVIQYGKIVSWLEMEYGLSEKESKASESFLLAAFLNLAMCYLKLREYTKAVECCDKALGLDSANEKGLYRRGEAQLLMNEFESAKGDFEKVLEVNPQNKAARLQISMCQKKAKEHNERDRRIYANMFKKFAEQDAKEEANKAMGKKTSEGVTNEKGTDSQAMEEEKPEGHV
# Tested on: human HL60 cells
# Assay: SWATH-MS proteomics, differential protein representation, akirin2 KO vs WT HL60 cells
# Assay type: cell-based
# Conditions: akirin2 KO vs WT HL60 cells; sheet "Under-represented in KO"
# Procedure, shortened: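 Read-out is label-free SWATH-MS protein area, globally normalized to total detected-protein area, with identifications held at 1% FDR against a library from information-dependent acquisition.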
Molecule,Fold Change,Log (Fold Change)
B1,0.6717,-0.1728
B2,0.6651,-0.1771
B3,0.6785,-0.1685
B4,0.6781,-0.1687
B5,0.6722,-0.1725
B6,0.6651,-0.1771
B7,0.6591,-0.1811
B8,0.6611,-0.1797
B9,0.6622,-0.179
B10,0.6681,-0.1751
